Data set [1] concerns the molecule itself. In words: circular dichroism with thermal melting; peptides in PBS, heated at 95 °C, annealed at 4 °C overnight; [θ]225 followed from 4 to 85 °C; chains of one peptide forming a triple helix. Background: CD spectra are sensitive to the conformation of chiral molecules.
Data set [2] concerns the target T1, glutathione S-transferase (GST)-PEDF-fusion protein (mouse, UniProt P97298 20-417).
T1 construct: pigment epithelium-derived factor (PEDF); also called GST-fused PEDF; recombinant PEDF
T1 sequence (looked up): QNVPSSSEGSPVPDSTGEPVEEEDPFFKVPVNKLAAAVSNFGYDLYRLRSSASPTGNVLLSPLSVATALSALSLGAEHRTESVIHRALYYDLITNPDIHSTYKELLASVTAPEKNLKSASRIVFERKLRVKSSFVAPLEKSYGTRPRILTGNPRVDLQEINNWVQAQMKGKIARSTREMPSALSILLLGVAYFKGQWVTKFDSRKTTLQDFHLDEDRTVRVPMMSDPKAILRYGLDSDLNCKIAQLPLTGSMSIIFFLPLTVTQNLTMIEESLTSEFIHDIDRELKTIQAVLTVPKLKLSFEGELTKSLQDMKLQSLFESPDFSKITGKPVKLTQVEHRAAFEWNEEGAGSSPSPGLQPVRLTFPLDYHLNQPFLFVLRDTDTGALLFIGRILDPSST
In words: ELISA; competitive ELISA: wells coated with 10 μg/ml collagen I; annealed peptides preincubated with 3 nM GST-PEDF for 10 min at room temperature in 20 mM HEPES-Na pH 7.4, 100 mM NaCl, 0.005% Tween 20; 90 min at 4 °C in the wells; HRP-anti-GST detection. As to conditions: both partners purified. In general terms: In an ELISA, binding on a coated surface is turned into a signal by an enzyme label.

Where only a bound is given, the exact number is not on record here.

B1: synthetic triple-helical peptide pep8 (peptide)
chain: YPPGPPGPPGPPGPRGPRGLLGLPGPPGPPGPPGPPG
HELM: PEPTIDE1{Y.P.[Hyp].G.P.[Hyp].G.P.[Hyp].G.P.[Hyp].G.P.R.G.P.R.G.L.L.G.L.[Hyp].G.P.[Hyp].G.P.[Hyp].G.P.[Hyp].G.P.[Hyp].G.[am]}$$$$V2.0; N-terminus assumed
SMILES: CC(C)C[C@H](NC(=O)CNC(=O)[C@H](CCCNC(=N)N)NC(=O)[C@@H]1CCCN1C(=O)CNC(=O)[C@H](CCCNC(=N)N)NC(=O)[C@@H]1CCCN1C(=O)CNC(=O)[C@@H]1C[C@@H](O)CN1C(=O)[C@@H]1CCCN1C(=O)CNC(=O)[C@@H]1C[C@@H](O)CN1C(=O)[C@@H]1CCCN1C(=O)CNC(=O)[C@@H]1C[C@@H](O)CN1C(=O)[C@@H]1CCCN1C(=O)CNC(=O)[C@@H]1C[C@@H](O)CN1C(=O)[C@@H]1CCCN1C(=O)[C@@H](N)Cc1ccc(O)cc1)C(=O)N[C@@H](CC(C)C)C(=O)NCC(=O)N[C@@H](CC(C)C)C(=O)N1C[C@H](O)C[C@H]1C(=O)NCC(=O)N1CCC[C@H]1C(=O)N1C[C@H](O)C[C@H]1C(=O)NCC(=O)N1CCC[C@H]1C(=O)N1C[C@H](O)C[C@H]1C(=O)NCC(=O)N1CCC[C@H]1C(=O)N1C[C@H](O)C[C@H]1C(=O)NCC(=O)N1CCC[C@H]1C(=O)N1C[C@H](O)C[C@H]1C(=O)NCC(N)=O
notes: Triple helix by CD; annealed before use; source: synthetic peptide (Fmoc solid phase, RP-HPLC purified)
The term IC50 denotes the concentration at which inhibition is half-maximal. High values mean weaker potency in that assay, low ones greater potency in that assay. For the molecule B1, the binding result in data set [1] is listed as “binds”. For the same molecule, the IC50 in data set [2] was > 10 µM.

These data come from PMC11533527, “A yeast two-hybrid system to obtain triple-helical ligands from combinatorial random peptide libraries” (The Journal of Biological Chemistry, 2024).
